The labels stand for the following.
B1: target 1 del9,del19 (mixed)
RNA 1: CACCCGUGCAAAAAUGCAGGGGUCUAAAACUGAGCGGAUAACCUCUCUAUGG
RNA 2: GGGAAUGGAUCCACAUCUACGAAUUCGUACCAAGAGAGGUUUCCGCUCACCGAGAUCGGAAGAGCACACGU
B2: target 1 A14C,G15U (mixed)
RNA 1: CACCCGUGCAAAAAUGCAGGGGUCUAAAACUGAGCGGAUAACCUCUCUAUGG
RNA 2: GGGAAUGGAUCCACAUCUACGAAUUCGUACCAUAGAUCGGUUAUCCGCUCACCGAGAUCGGAAGAGCACACGU
B3: target 1 complement block 3-11 (mixed)
RNA 1: CACCCGUGCAAAAAUGCAGGGGUCUAAAACUGAGCGGAUAACCUCUCUAUGG
RNA 2: GGGAAUGGAUCCACAUCUACGAAUUCGUACCAUAGAGAGGAAUAGGCGACACCGAGAUCGGAAGAGCACACGU
B4: target 1 insA 3' of 15,insC 3' of 9 (mixed)
RNA 1: CACCCGUGCAAAAAUGCAGGGGUCUAAAACUGAGCGGAUAACCUCUCUAUGG
RNA 2: GGGAAUGGAUCCACAUCUACGAAUUCGUACCAUAGAGAAGGUUACUCCGCUCACCGAGAUCGGAAGAGCACACGU
B5: target 1 insG 3' of 19,insA 3' of 8 (mixed)
RNA 1: CACCCGUGCAAAAAUGCAGGGGUCUAAAACUGAGCGGAUAACCUCUCUAUGG
RNA 2: GGGAAUGGAUCCACAUCUACGAAUUCGUACCAUGAGAGAGGUUAUACCGCUCACCGAGAUCGGAAGAGCACACGU
B6: target 1 U10G,C21U (mixed)
RNA 1: CACCCGUGCAAAAAUGCAGGGGUCUAAAACUGAGCGGAUAACCUCUCUAUGG
RNA 2: GGGAAUGGAUCCACAUCUACGAAUUCGUACUAUAGAGAGGUGAUCCGCUCACCGAGAUCGGAAGAGCACACGU
B7: target 1 insC 3' of 13,insA 3' of 10 (mixed)
RNA 1: CACCCGUGCAAAAAUGCAGGGGUCUAAAACUGAGCGGAUAACCUCUCUAUGG
RNA 2: GGGAAUGGAUCCACAUCUACGAAUUCGUACCAUAGAGAGCGUUAAUCCGCUCACCGAGAUCGGAAGAGCACACGU
B8: target 1 U3C (mixed)
RNA 1: CACCCGUGCAAAAAUGCAGGGGUCUAAAACUGAGCGGAUAACCUCUCUAUGG
RNA 2: GGGAAUGGAUCCACAUCUACGAAUUCGUACCAUAGAGAGGUUAUCCGCCCACCGAGAUCGGAAGAGCACACGU
B9: target 1 G12U,G17U (mixed)
RNA 1: CACCCGUGCAAAAAUGCAGGGGUCUAAAACUGAGCGGAUAACCUCUCUAUGG
RNA 2: GGGAAUGGAUCCACAUCUACGAAUUCGUACCAUAUAGAGUUUAUCCGCUCACCGAGAUCGGAAGAGCACACGU
B10: target 1 C6U,A20C (mixed)
RNA 1: CACCCGUGCAAAAAUGCAGGGGUCUAAAACUGAGCGGAUAACCUCUCUAUGG
RNA 2: GGGAAUGGAUCCACAUCUACGAAUUCGUACCCUAGAGAGGUUAUCUGCUCACCGAGAUCGGAAGAGCACACGU
B11: target 1 U10G,A20U (mixed)
RNA 1: CACCCGUGCAAAAAUGCAGGGGUCUAAAACUGAGCGGAUAACCUCUCUAUGG
RNA 2: GGGAAUGGAUCCACAUCUACGAAUUCGUACCUUAGAGAGGUGAUCCGCUCACCGAGAUCGGAAGAGCACACGU
B12: target 1 G5A,U11C (mixed)
RNA 1: CACCCGUGCAAAAAUGCAGGGGUCUAAAACUGAGCGGAUAACCUCUCUAUGG
RNA 2: GGGAAUGGAUCCACAUCUACGAAUUCGUACCAUAGAGAGGCUAUCCACUCACCGAGAUCGGAAGAGCACACGU
B13: target 1 insG 3' of 4,insU 3' of 4 (mixed)
RNA 1: CACCCGUGCAAAAAUGCAGGGGUCUAAAACUGAGCGGAUAACCUCUCUAUGG
RNA 2: GGGAAUGGAUCCACAUCUACGAAUUCGUACCAUAGAGAGGUUAUCCGCGUUCACCGAGAUCGGAAGAGCACACGU
B14: target 1 insU 3' of 14,insG 3' of 7 (mixed)
RNA 1: CACCCGUGCAAAAAUGCAGGGGUCUAAAACUGAGCGGAUAACCUCUCUAUGG
RNA 2: GGGAAUGGAUCCACAUCUACGAAUUCGUACCAUAGAGAUGGUUAUCGCGCUCACCGAGAUCGGAAGAGCACACGU
B15: target 1 C2U,A14G (mixed)
RNA 1: CACCCGUGCAAAAAUGCAGGGGUCUAAAACUGAGCGGAUAACCUCUCUAUGG
RNA 2: GGGAAUGGAUCCACAUCUACGAAUUCGUACCAUAGAGGGGUUAUCCGCUUACCGAGAUCGGAAGAGCACACGU
B16: target 1 C7A,U11A (mixed)
RNA 1: CACCCGUGCAAAAAUGCAGGGGUCUAAAACUGAGCGGAUAACCUCUCUAUGG
RNA 2: GGGAAUGGAUCCACAUCUACGAAUUCGUACCAUAGAGAGGAUAUACGCUCACCGAGAUCGGAAGAGCACACGU
B17: target 1 U8G,A18G (mixed)
RNA 1: CACCCGUGCAAAAAUGCAGGGGUCUAAAACUGAGCGGAUAACCUCUCUAUGG
RNA 2: GGGAAUGGAUCCACAUCUACGAAUUCGUACCAUGGAGAGGUUAGCCGCUCACCGAGAUCGGAAGAGCACACGU
B18: target 1 G13U,C21U (mixed)
RNA 1: CACCCGUGCAAAAAUGCAGGGGUCUAAAACUGAGCGGAUAACCUCUCUAUGG
RNA 2: GGGAAUGGAUCCACAUCUACGAAUUCGUACUAUAGAGAUGUUAUCCGCUCACCGAGAUCGGAAGAGCACACGU
B19: target 1 insC 3' of 13,insC 3' of 12 (mixed)
RNA 1: CACCCGUGCAAAAAUGCAGGGGUCUAAAACUGAGCGGAUAACCUCUCUAUGG
RNA 2: GGGAAUGGAUCCACAUCUACGAAUUCGUACCAUAGAGAGCGCUUAUCCGCUCACCGAGAUCGGAAGAGCACACGU
B20: target 1 G5C,G12U (mixed)
RNA 1: CACCCGUGCAAAAAUGCAGGGGUCUAAAACUGAGCGGAUAACCUCUCUAUGG
RNA 2: GGGAAUGGAUCCACAUCUACGAAUUCGUACCAUAGAGAGUUUAUCCCCUCACCGAGAUCGGAAGAGCACACGU
B21: target 1 complement block 3-8 (mixed)
RNA 1: CACCCGUGCAAAAAUGCAGGGGUCUAAAACUGAGCGGAUAACCUCUCUAUGG
RNA 2: GGGAAUGGAUCCACAUCUACGAAUUCGUACCAUAGAGAGGUUAAGGCGACACCGAGAUCGGAAGAGCACACGU
B22: target 1 insG 3' of 19,insG 3' of 14 (mixed)
RNA 1: CACCCGUGCAAAAAUGCAGGGGUCUAAAACUGAGCGGAUAACCUCUCUAUGG
RNA 2: GGGAAUGGAUCCACAUCUACGAAUUCGUACCAUGAGAGAGGGUUAUCCGCUCACCGAGAUCGGAAGAGCACACGU
B23: target 1 insU 3' of 22,insG 3' of 20 (mixed)
RNA 1: CACCCGUGCAAAAAUGCAGGGGUCUAAAACUGAGCGGAUAACCUCUCUAUGG
RNA 2: GGGAAUGGAUCCACAUCUACGAAUUCGUACUCAGUAGAGAGGUUAUCCGCUCACCGAGAUCGGAAGAGCACACGU
B24: target 1 U3A,U11A (mixed)
RNA 1: CACCCGUGCAAAAAUGCAGGGGUCUAAAACUGAGCGGAUAACCUCUCUAUGG
RNA 2: GGGAAUGGAUCCACAUCUACGAAUUCGUACCAUAGAGAGGAUAUCCGCACACCGAGAUCGGAAGAGCACACGU
B25: target 1 insU 3' of 21,insC 3' of 15 (mixed)
RNA 1: CACCCGUGCAAAAAUGCAGGGGUCUAAAACUGAGCGGAUAACCUCUCUAUGG
RNA 2: GGGAAUGGAUCCACAUCUACGAAUUCGUACCUAUAGAGCAGGUUAUCCGCUCACCGAGAUCGGAAGAGCACACGU
B26: target 1 insA 3' of 19,insC 3' of 12 (mixed)
RNA 1: CACCCGUGCAAAAAUGCAGGGGUCUAAAACUGAGCGGAUAACCUCUCUAUGG
RNA 2: GGGAAUGGAUCCACAUCUACGAAUUCGUACCAUAAGAGAGGCUUAUCCGCUCACCGAGAUCGGAAGAGCACACGU
B27: target 1 insU 3' of 18,insU 3' of 15 (mixed)
RNA 1: CACCCGUGCAAAAAUGCAGGGGUCUAAAACUGAGCGGAUAACCUCUCUAUGG
RNA 2: GGGAAUGGAUCCACAUCUACGAAUUCGUACCAUAUGAGUAGGUUAUCCGCUCACCGAGAUCGGAAGAGCACACGU

For the data set, the target named is T1, EsCas13d, nuclease-dead (Eubacterium siraeum, UniProt B0MS50, R295A;H300A;R849A;H854A).
T1 sequence: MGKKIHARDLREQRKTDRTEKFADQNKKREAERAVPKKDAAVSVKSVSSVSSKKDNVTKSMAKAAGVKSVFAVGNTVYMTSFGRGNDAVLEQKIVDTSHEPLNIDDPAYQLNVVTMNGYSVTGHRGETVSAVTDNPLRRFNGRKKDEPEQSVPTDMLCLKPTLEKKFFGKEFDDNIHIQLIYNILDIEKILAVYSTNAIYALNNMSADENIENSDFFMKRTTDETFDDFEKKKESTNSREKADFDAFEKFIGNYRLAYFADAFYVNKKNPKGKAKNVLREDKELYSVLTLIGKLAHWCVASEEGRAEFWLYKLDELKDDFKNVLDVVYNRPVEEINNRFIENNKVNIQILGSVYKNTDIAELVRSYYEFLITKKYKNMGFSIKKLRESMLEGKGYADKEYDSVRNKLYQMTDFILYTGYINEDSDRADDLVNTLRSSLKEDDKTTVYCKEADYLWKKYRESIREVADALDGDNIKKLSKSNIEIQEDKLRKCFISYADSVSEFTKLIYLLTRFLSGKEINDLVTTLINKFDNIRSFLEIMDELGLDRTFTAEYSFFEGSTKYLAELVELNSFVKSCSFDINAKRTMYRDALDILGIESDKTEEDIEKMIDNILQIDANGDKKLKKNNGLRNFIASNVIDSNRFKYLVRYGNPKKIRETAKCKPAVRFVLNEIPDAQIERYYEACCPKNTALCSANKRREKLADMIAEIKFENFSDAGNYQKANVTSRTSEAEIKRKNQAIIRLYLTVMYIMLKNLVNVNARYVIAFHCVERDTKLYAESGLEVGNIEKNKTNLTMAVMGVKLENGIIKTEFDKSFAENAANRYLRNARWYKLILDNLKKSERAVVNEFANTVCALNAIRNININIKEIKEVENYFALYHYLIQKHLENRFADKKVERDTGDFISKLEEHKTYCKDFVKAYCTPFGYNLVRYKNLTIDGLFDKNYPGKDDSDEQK
In words: crRNA (strand 1, pre-loaded); Mg2+; 40 mM Tris-HCl pH 7.5, 150 mM NaCl, 6 mM MgCl2, 1 mM DTT, 0.1% Tween-20, 0.2 mg/ml BSA; 25 C; 10 min per concentration, then washed. To be noted: tags: His6-TwinStrep-SUMO cleaved; N-terminal SNAP kept (SNAP-Surface 488); label: 3' end held by stalled T7 RNA polymerase.
In the case of B1, the affinity, expressed as Kd, was 86 ± 33 nM. With B2, the Kd – broadly, the constant that tells how readily two partners part at equilibrium – worked out at 35 ± 6 nM.

The molecule B3 gave a dissociation constant Kd of 13 ± 0.6 nM. For the molecule B4, binding was characterised by a dissociation constant (Kd) of 9 ± 0.9 nM.

With B5, the dissociation constant (Kd) is 57 ± 7 nM. For B6 the value was 11.7 ± 0.8 nM; for B7, 12.7 ± 0.6 nM. For B8 the value was 26.3 ± 3.2 nM. For B9 the value was 31.3 ± 3.5 nM. On to B10, for which the Kd was 100 ± 50 nM. For B11 the value was 60 ± 18 nM; for B12, 34 ± 4 nM; for B13, 7 ± 0.4 nM. For B14 the value was 29.3 ± 1.7 nM. Molecule B15 returned an equilibrium dissociation constant (Kd) of 15 ± 0.7 nM. Molecule B16 returned a Kd of 17.9 ± 1.3 nM. For B17 the value was 66 ± 21 nM. For B18 the value was 10.5 ± 0.9 nM.

Consider B19, for which the Kd was 17.7 ± 1.2 nM. In turn, B20 came in with a Kd of 8.7 ± 0.6 nM. For B21 the value was 9.9 ± 0.4 nM; for B22, 75 ± 16 nM. For B23 the value was 78 ± 24 nM.

In turn, B24 showed a Kd of 12.7 ± 0.7 nM. For B25 the value was 55 ± 7 nM. As to B26, the dissociation constant (Kd) is 70 ± 31 nM. For B27 the value was 50 ± 12 nM.
